Reference: patent US20070128190A1 (GLENMARK PHARMACEUTICALS S A, published 2007)
Like-named read-outs stand apart in the source and are kept apart here.

Tests used:
TMC-2206 [1] = molecular target: T1, TMC-2206; test: fusion protein competing Eu-TMC-2206 off α2β1-coated plate
T1 construct: murine IgG1/κ secreted by hybridoma BHA2.1; labelled with Eu-N1-ITC where used as tracer; also called BHA2.1
Procedure: Wells in a 96 well microtiter plate were coated with platelet α2β1-integrin (custom-coated with human platelet α2β1 by GTI Inc., Wis.) and then blocked with nonfat milk. […] After concentration in prewashed MicroSep concentrators (30-kDa cutoff; Pall Life Sciences at 9500 rpm (7000×g) in a JA-20 rotor (Beckman Instruments, Inc.) for 20 minutes at 4° C.), antibodies were adjusted to 4.0 mg/mL with PBS containing a final concentration of 100 mM NaHCO₃, pH 9.3. The mAb/bicarbonate mixture (0.250 mL) was gently mixed into a vial containing 0.2 mg N¹-(p-isothiocyanatobenzyl)-diethylenetriamine-N¹,N²,N³N³-tetraacetic acid chelated with Eu³⁺ (Eu-N1-ITC; Perkin Elmer Life Sciences) and reacted overnight at 4° C. without stirring. Each labeled antibody mixture was applied to a separate PD-10 column (GE Biosciences, Piscataway, N.J.) pre-equilibrated with Running Buffer (50 mM Tris, pH 7.4 and 138 mM NaCl). Fractions (0.5 mL) were collected and assayed for total protein (Bradford reagent; Bio-Rad Laboratories, Hercules, Calif.) using a SpectraMax 384 absorbance plate reader and for europium after 1:10.000 dilution in DELFIA Enhancement Solution (Perkin-Elmer) by time-resolved fluorescence (TRF) using a Victor2 multi-label plate reader (Perkin Elmer). The fractions that were positive for both protein and Eu label were pooled and applied to new PD-10 columns and samples collected and assayed for total protein and for europium content by TRF calibrated against a europium standard solution (Perkin-Elmer) to calculate the fluor: protein ratio.

TMC-2206 [2] = molecular target: T1, TMC-2206; test: ELISA, GST fusion protein on immobilized TMC-2206 (Kd apparent)
Procedure: The fusion proteins were then expressed and purified as described above for the human GST-α2 I domain fusion protein. […] Therefore, these and the primate fusion proteins were further purified by size exclusion chromatography on a Sephadex 75 10/30 (GE-Amersham) column (primate) by FPLC on an Akta-Basic FPLC system (GE-Amersham) to yield a monomeric fraction. […] The Kᵢ assays were performed as described above in Example 2. […] Plates were sealed and coating occurred overnight at 4° C. The next morning, the plates were washed twice with TBS solution and then blocked using 200 μL of the blocking solution described above for 1 hour at room temperature with shaking. After blocking, the blocking solution was removed but the wells were not washed. Instead, a serial dilution of GST fusion protein was made, added to the wells and then incubated for 2 hours at room temperature with shaking. The wells were then aspirated and a TBS washing buffer applied for 5 minutes at room temperature. The washing step was repeated twice more before the secondary antibody was applied. The secondary antibody step consisted of Amersham's HRP-conjugated rabbit anti-GST antibody diluted 1:2000 in blocking buffer. One hundred μL of secondary antibody was added to each well and incubated at room temperature for 1.5 hours with shaking. The wells were again aspirated and washed three times with wash buffer before adding the substrate reaction mixture. One hundred μL of substrate reaction mixture (1:1 dilution of TMB kit) was then added to each well for 6 minutes. The reaction was stopped by adding 100 μL of 0.1M H₂SO₄. The reaction within the wells was then read and quantified by spectrophotometric absorption using the Molecular Dynamics plate reader and associated Softmax software, respectively. Kd values were then estimated from the EC₅₀ values using Prism software (Graphpad, Calif.).

TMC-2206 [3] = molecular target: T1, TMC-2206; test: fusion protein competing Eu-TMC-2206 off α2β1-coated plate; remark: listed apart in the source
TMC-2206 [4] = molecular target: T1, TMC-2206; test: as above; remark: listed apart in the source
[5] = molecular target: human α2 integrin with endogenous hamster β1 on CHO cells (human; hamster); test: cell-based or functional assay
Sequence of human α2 integrin with endogenous hamster β1 on CHO cells (human; hamster) (P17301 30-1181 E534K): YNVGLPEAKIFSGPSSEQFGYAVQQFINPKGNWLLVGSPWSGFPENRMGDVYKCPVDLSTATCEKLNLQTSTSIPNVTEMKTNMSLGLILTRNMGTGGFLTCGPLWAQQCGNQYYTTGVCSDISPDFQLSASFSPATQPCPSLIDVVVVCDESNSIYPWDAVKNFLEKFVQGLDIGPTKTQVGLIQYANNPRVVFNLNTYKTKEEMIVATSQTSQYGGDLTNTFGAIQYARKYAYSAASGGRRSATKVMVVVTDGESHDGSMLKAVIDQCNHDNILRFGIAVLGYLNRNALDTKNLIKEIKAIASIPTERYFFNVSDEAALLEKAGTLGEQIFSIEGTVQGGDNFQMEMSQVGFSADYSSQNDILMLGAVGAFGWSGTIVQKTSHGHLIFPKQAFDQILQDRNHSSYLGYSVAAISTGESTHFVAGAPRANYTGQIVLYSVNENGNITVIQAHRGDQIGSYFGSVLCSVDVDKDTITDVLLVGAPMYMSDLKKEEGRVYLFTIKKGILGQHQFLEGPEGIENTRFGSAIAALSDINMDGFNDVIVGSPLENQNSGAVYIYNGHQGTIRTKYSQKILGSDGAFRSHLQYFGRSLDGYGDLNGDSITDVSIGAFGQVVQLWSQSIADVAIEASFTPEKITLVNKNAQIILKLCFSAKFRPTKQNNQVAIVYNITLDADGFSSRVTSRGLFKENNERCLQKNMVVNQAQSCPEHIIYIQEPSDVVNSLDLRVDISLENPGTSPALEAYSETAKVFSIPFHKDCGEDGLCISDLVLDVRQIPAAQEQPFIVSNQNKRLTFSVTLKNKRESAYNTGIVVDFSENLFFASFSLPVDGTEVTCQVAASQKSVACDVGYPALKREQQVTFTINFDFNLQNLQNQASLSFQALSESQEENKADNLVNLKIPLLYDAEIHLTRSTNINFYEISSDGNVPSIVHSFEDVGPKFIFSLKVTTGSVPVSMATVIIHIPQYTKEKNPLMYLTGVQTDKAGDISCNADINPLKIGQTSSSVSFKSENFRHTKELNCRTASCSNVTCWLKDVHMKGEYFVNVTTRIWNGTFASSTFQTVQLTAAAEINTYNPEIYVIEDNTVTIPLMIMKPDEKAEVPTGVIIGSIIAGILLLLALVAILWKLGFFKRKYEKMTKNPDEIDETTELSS

[6] = molecular target: T2, human platelet α2β1 integrin (immobilized on microtiter plates) (human, UniProt P17301 30-1181; P05556 21-798); test: competition with Eu-TMC-2206 on human platelet α2β1-coated plate
T2 construct: plates custom-coated with human platelet α2β1 by GTI Inc; also called immobilized α2β1 integrin; α2β1-coated plates
T2 sequence (P17301 30-1181 E534K limits assumed, chain 1 of 2): as the sequence (P17301 30-1181 E534K) above
T2 sequence (P05556 21-798 limits assumed, chain 2 of 2): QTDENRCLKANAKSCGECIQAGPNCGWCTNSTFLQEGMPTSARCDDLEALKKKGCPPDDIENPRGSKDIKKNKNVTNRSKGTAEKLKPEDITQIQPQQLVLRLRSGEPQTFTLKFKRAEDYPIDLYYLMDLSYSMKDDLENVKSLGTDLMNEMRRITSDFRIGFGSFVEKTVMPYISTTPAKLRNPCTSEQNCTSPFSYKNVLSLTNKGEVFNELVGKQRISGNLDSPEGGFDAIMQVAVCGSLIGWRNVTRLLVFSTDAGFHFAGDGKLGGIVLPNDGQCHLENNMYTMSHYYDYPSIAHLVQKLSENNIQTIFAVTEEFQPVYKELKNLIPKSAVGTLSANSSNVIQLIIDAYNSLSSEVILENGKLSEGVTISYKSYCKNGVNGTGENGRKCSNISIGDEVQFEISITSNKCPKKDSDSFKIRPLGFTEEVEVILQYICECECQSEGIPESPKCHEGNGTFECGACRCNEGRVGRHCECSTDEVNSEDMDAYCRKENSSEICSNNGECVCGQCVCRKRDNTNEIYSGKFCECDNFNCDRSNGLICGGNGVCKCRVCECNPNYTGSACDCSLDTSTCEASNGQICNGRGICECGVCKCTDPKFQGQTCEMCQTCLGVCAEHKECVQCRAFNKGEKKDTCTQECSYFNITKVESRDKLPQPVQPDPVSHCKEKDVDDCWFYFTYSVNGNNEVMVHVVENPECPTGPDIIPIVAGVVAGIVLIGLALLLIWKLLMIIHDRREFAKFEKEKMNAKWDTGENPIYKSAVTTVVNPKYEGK

[7] = molecular target: T2, human platelet α2β1 integrin …; test: as above; remark: listed apart in the source
Procedure: (§1) Each labeled antibody mixture was applied to a separate PD-10 column (GE Biosciences, Piscataway, N.J.) pre-equilibrated with Running Buffer (50 mM Tris, pH 7.4 and 138 mM NaCl). Fractions (0.5 mL) were collected and assayed for total protein (Bradford reagent; Bio-Rad Laboratories, Hercules, Calif.) using a SpectraMax 384 absorbance plate reader and for europium after 1:10.000 dilution in DELFIA Enhancement Solution (Perkin-Elmer) by time-resolved fluorescence (TRF) using a Victor2 multi-label plate reader (Perkin Elmer). The fractions that were positive for both protein and Eu label were pooled and applied to new PD-10 columns and samples collected and assayed for total protein and for europium content by TRF calibrated against a europium standard solution (Perkin-Elmer) to calculate the fluor: protein ratio. […] After incubating the sealed plates for 1 hr at 37° C. to allow binding to reach equilibrium, 2 μL samples were transferred from each well into a fresh well containing DELFIA Enhancement Solution (100 μL/well; Perkin-Elmer) for the measurement of free (unbound) label. Enhancement Solution (100 μL/well) was added to the emptied wells for the measurement of bound label. The plate was shaken (Titer Plate Shaker speed setting of 5 for 5 minutes at room temperature) and time-resolved fluorescent (TRF) intensities were read using a Victor2 multi-label plate reader (Perkin-Elmer Wallac, Boston, Mas.).

[8] = molecular target: T2, human platelet α2β1 integrin …; test: competition with Eu-TMC-2206 on human platelet α2β1-coated plate, Cheng-Prusoff
Procedure: as §1, with “Enhancement Solution (100 μL/well) was added to the emptied wells for the measurement of bound label.” left out

[9] = molecular target: T3, Humanized TMC-2206 (hIgG4/κ VH12.0/VL10.0Q); test: fusion protein competing Eu-humanized TMC-2206 off α2β1-coated plates
T3 construct: labelled with Eu or Alexa-488 in some assays
Source text: The inhibition curves were fitted with the “one site competition” model using Prism software (GraphPad, Inc.) to obtain IC₅₀ values and to calculate the Kᵢ using the equation of Cheng and Prusoff (1973) and the respective values for KD from above.
The cloning of the human, rhesus macaque, rat, and mouse α2 I domains were described in Example 12. Cynomolgus and additional rhesus monkey α2 I domains were cloned from cDNA derived from total RNA extracted from skin tissue (MediCorp, Inc., Montreal, QC).

TMC-2206 [10] = molecular target: T1, TMC-2206; test: fusion protein competing Eu-TMC-2206 off α2β1-coated plate; remark: listed apart in the source
Procedure: After incubating the sealed plates for 1 hr at 37° C. to allow binding to reach equilibrium, 2 μL samples were transferred from each well into a fresh well containing DELFIA Enhancement Solution (100 μL/well; Perkin-Elmer) for the measurement of free (unbound) label. Enhancement Solution (100 μL/well) was added to the emptied wells for the measurement of bound label. The plate was shaken (Titer Plate Shaker speed setting of 5 for 5 minutes at room temperature) and time-resolved fluorescent (TRF) intensities were read using a Victor2 multi-label plate reader (Perkin-Elmer Wallac, Boston, Mas.).
The fusion proteins were then expressed and purified as described above for the human GST-α2 I domain fusion protein. […] Therefore, these and the primate fusion proteins were further purified by size exclusion chromatography on a Sephadex 75 10/30 (GE-Amersham) column (primate) by FPLC on an Akta-Basic FPLC system (GE-Amersham) to yield a monomeric fraction. […] The Kᵢ assays were performed as described above in Example 2. […] Plates were sealed and coating occurred overnight at 4° C. The next morning, the plates were washed twice with TBS solution and then blocked using 200 μL of the blocking solution described above for 1 hour at room temperature with shaking. After blocking, the blocking solution was removed but the wells were not washed. […]

B1: GST-hα2 I domain A114Q (other)
chain: GSSPDFQLSASFSPATQPCPSLIDVVVVCDESNSIYPWDAVKNFLEKFVQGLDIGPTKTQVGLIQYANNPRVVFNLNTYKTKEEMIVATSQTSQYGGDLTNTFGAIQYARKYAYSQASGGRRSATKVMVVVTDGESHDGSMLKAVIDQCNHDNILRFGIAVLGYLNRNALDTKNLIKEIKAIASIPTERYFFNVSDEAALLEKAGTLGEQIFSIEGTVEFIVTD
notes: same construct as m41; not shown: GST carrier with the pGEX-2TK vector linker at the N end
TMC-2206 [1]
  Ki: 0.64 nM
TMC-2206 [2]
  Kd: 0.19 nM

B2: GST-hα2 I domain N73D (other)
chain: GSSPDFQLSASFSPATQPCPSLIDVVVVCDESNSIYPWDAVKNFLEKFVQGLDIGPTKTQVGLIQYANNPRVVFDLNTYKTKEEMIVATSQTSQYGGDLTNTFGAIQYARKYAYSAASGGRRSATKVMVVVTDGESHDGSMLKAVIDQCNHDNILRFGIAVLGYLNRNALDTKNLIKEIKAIASIPTERYFFNVSDEAALLEKAGTLGEQIFSIEGTVEFIVTD
notes: as for B1
TMC-2206 [3]
  fold decrease in Ki values: 7.8 fold
TMC-2206 [4]
  Ki: 2.17 nM

B3: GST-hα2 I domain E195W (other)
chain: GSSPDFQLSASFSPATQPCPSLIDVVVVCDESNSIYPWDAVKNFLEKFVQGLDIGPTKTQVGLIQYANNPRVVFNLNTYKTKEEMIVATSQTSQYGGDLTNTFGAIQYARKYAYSAASGGRRSATKVMVVVTDGESHDGSMLKAVIDQCNHDNILRFGIAVLGYLNRNALDTKNLIKEIKAIASIPTERYFFNVSDWAALLEKAGTLGEQIFSIEGTVEFIVTD
notes: same construct as m41; reported to lock the I domain in the open conformation; not shown: GST carrier with the pGEX-2TK vector linker at the N end
TMC-2206 [3]
  fold decrease in Ki values: 45 fold
TMC-2206 [4]
  Ki: 12.8 nM

B4: GST-hα2 I domain Q89H (other)
chain: GSSPDFQLSASFSPATQPCPSLIDVVVVCDESNSIYPWDAVKNFLEKFVQGLDIGPTKTQVGLIQYANNPRVVFNLNTYKTKEEMIVATSHTSQYGGDLTNTFGAIQYARKYAYSAASGGRRSATKVMVVVTDGESHDGSMLKAVIDQCNHDNILRFGIAVLGYLNRNALDTKNLIKEIKAIASIPTERYFFNVSDEAALLEKAGTLGEQIFSIEGTVEFIVTD
notes: as for B1
TMC-2206 [3]
  fold decrease in Ki values: 15.9 fold
TMC-2206 [4]
  Ki: 4.46 nM

B5: GST-hα2 I domain A115T (other)
chain: GSSPDFQLSASFSPATQPCPSLIDVVVVCDESNSIYPWDAVKNFLEKFVQGLDIGPTKTQVGLIQYANNPRVVFNLNTYKTKEEMIVATSQTSQYGGDLTNTFGAIQYARKYAYSATSGGRRSATKVMVVVTDGESHDGSMLKAVIDQCNHDNILRFGIAVLGYLNRNALDTKNLIKEIKAIASIPTERYFFNVSDEAALLEKAGTLGEQIFSIEGTVEFIVTD
notes: as for B1
TMC-2206 [1]
  Ki: 0.76 nM
TMC-2206 [2]
  Kd: 0.19 nM

B6: mouse-human chimeric TMC-2206 antibody (wild type chimera) (antibody, human IgG1, V domains shown)
VH: QVQLKESGPGLVAPSQSLSITCTVSGFSLTNYGIHWVRQPPGKGLEWLGVIWARGFTNYNSALMSRLIITKDNSQSQVFLKMNSLQPDDSATYFCARANDGVYYAMDYWGQGTSVTVSS
VL: QFVLTQSPAFLSASPGEKVTMTCSANSSVNYIHWYQQKSGTSPKKWIYDTSKLASGVPVRFSGSGSGTSYSLTISSMETEDAATYYCQQWTTNPLTFGAGTRVELK
notes: murine VH and VL on human IgG1 Fc and human κ constant region; also called wt chimera
[5]
  EC50, inhibition of adhesion of CHO-α2 cells to collagen Type I: 1.8 nM
[6]
  Ki: 0.52 nM
[7]
  Ki: 0.26 nM
[8]
  Ki: 0.27 nM

B7: mouse-human chimeric TMC-2206 antibody carrying the two LC mutations of the SalI site (antibody, human IgG1, V domains shown)
VH: QVQLKESGPGLVAPSQSLSITCTVSGFSLTNYGIHWVRQPPGKGLEWLGVIWARGFTNYNSALMSRLIITKDNSQSQVFLKMNSLQPDDSATYFCARANDGVYYAMDYWGQGTSVTVSS
VL: QFVLTQSPAFLSASPGEKVTMTCSANSSVNYIHWYQQKSGTSPKKWIYDTSKLASGVPVRFSGSGSGTSYSLTISSMETEDAATYYCQQWTTNPLTFGAGTRVDIK
notes: human IgG1 Fc and human κ constant region; 'L1061' is printed for L106I; also called chimeric form carrying the two LC mutations
[8]
  Ki: 0.27 nM

B8: GST-cynomolgus α2 I domain fusion protein of Example 18 (sequence identical to the human I domain) (other)
chain: SPDFQLSASFSPATQPCPSLIDVVVVCDESNSIYPWDAVKNFLEKFVQGLDIGPTKTQVGLIQYANNPRVVFNLNTYKTKEEMIVATSQTSQYGGDLTNTFGAIQYARKYAYSAASGGRRSATKVMVVVTDGESHDGSMLKAVIDQCNHDNILRFGIAVLGYLNRNALDTKNLIKEIKAIASIPTERYFFNVSDEAALLEKAGTLGEQIFSIEGTV
notes: also called GST-cynomolgous-α2 I domain fusion protein; not shown: glutathione S-transferase tag, vector not restated
[9]
  Ki: 0.47 nM

B9: GST-rhesus α2 I domain fusion protein (other)
chain: SPDFQLSASFSPATQPCPSLIDVVVVCDESNSIYPWDAVKNFLEKFVQGLDIGPTKTQVGLIQYANNPRVVFNLNTYKTKEEMIVATSQTSQYGGDLTNTFGAIQYARKYAYSAASGGRRSATKVMVVVTDGESHDGSMLKAVIDQCNHDNILRFGIAVLGYLNRNALDTKNLIKEIKAIASIPTERYFFNVSDEAALLEKAGTLGEQIFSIEGTV
notes: also called rhesus GST-α2 I; not shown: glutathione S-transferase tag encoded by vector pGEX-2TK
TMC-2206 [10]
  Ki: 4.4 nM
[9]
  Ki: 0.4 nM
